These results are taken from a protein production outcome set (Wang et al. 2014).

The data set is described as follows: label from the status in PepcDB records.
For the sequence “MSSSTERPALPLNECDPHWLRNLWVCVFGVFTTIVAMTLLLPFLPLYVEQLGVDNHAAVVLWSGATYGATFLSAAITAPLWGRLGDRYGRKLMLIRASLGMAVAMSLIGLAQTVWQLLLLRLLAGLLGGYASGATILVATQTPKARSGWALGVLSSGIMAGSLAGPLMGGVLPPLIGIRNTFFLAGGVIFITFLATLLLLREMPRKAPSRATDSALPAVVKLSGEQRRMITCMFVVASLVMFSTMSVEPIITVYLRQLKTDNVTMMAGVVMSATALGSILAASRLGRLADRIGYLPVLTSCLAMTALTLIPQAWVSNVWQLAALRFFMGLALGGLLPCVAAIIRHTVPNEVAGRMLGYSTSSQYLGQVLGPLAGGLLGGYLGIGSVFLGTAMVLAACSIMVGRMDMIRTPASSKL”, the protein production result is “failed”.
The result for “MQETDNLLKTLNVKSLLEALLVYTPKGYKDLNLLERFETGLSGVLEVGILEKRNYAKVLKIFAYSKRFYKNLELVFFNYSAFHHSQFKTGESLFIYGKLEQSSFNQAYIINTPKIITKFGKISLIFKKVKNHKKIQENLQKLISLENLKKEGVKENIAHLLLEIFFPTPHFVKDFETNKNFPSQHLNALKYIEMLFYMKNLERKKLQFGAKIACPNNNERLKAFIASLPFKLTRDQQNAIKEIQNDLTSSIACKRLIIGDVGCGKTMVILASMVLTYPNKTLLMAPTSILAKQLYNEALKFLPPYFEVELLLGGSYKKRSNHLFETITHVVIGTQALLFDKRDLNEFALVITDEQHRFGTKQRYQLEKMASSKGNKPHSLQFSATPIPRTLALAKSAFVKTTMIREIPYPKEIETLVLHKRDFKIVMEKISEEIAKNHQVIVVYPLVNESEKIPYLSLSEGASFWQKRFKKVYTTSGQDKNKEEVIEEFRESGSILLATTLIEVGISLPRLSVMVILAPERLGLATLHQLRGRVSRNGLKGYCFLCTIQEENERLEKFADELDGFKIAELDLEYRKSGDLLQGGEQSGNSFEYIDLAKDENIIAEVKRDFLKAASVSRGTFEN” reads “failed”; that for “MVSACGLIALGLDNQAARMAARLRDLAREWRALPPHAARRGAVAEQVAVLDRRHGLYSRALLLNYGALFAFVVTSLLWLGQAYWSVPPELPVLVFGLGVAMLAAMAVLVIASITLARSTIEAEAAEVLRERRAPPASGRPAPARG”, “failed”.
The same measure for “MTQRRAMLILHGKQSLNEDVRDAVADKRKQGWELDVRLTWEAGDAQRLVNEALAAGHRHIVAGGGDGTLRDIAEALALAATKASLTILPLGTANDFARAAGVPLDVSKALQLMDVAPRAVDLGEVGGKLFLNMATGGFGSQVTANTSEDLKKVLGGAAYLFTGLTRFSELHAAHGELTGPDFHWRGDLLALGIGNGRQAGGGHELCPTALADDGLLDISILPAPQEVVGTLRSLLEGGLGIDNMFIRARLPWVELKSAQGLDINLDGEPLSGEDLRFVARPGALQVHLPANSPVLGSTPLLNRPD”: “not failed”; for “MFADNTLTPKEAVRLCALGTIASQPMRYSELAGSVRHFTSRIMGPSLELMGISIELLRYEGLVEAVDDGQGMEDDAMLAISAAGRRELHSLLTARLRPGSDLSKLVVALKMRFLGLMEAEERAHQIDLLIEGVDSELARLADLRGSDGEGGSALAAWLDHDMALLESRLAWLEDFRARL”: “not failed”; for “AEIDTSSIVEMVQGAEDAPVEVIEYASYTCPHCAAFHEGPYKKLKADFIDTGKVRFIYREVYFDRYGLWASMVARCAGPEKFFGISDLIYKGQAEWSRAGGPAEIAEELRKIGRLAGIENDKLEACLGDATKAQTLVAWYQEHATRDDINSTPSFMINGKKVENQAYDGFKALIEAELGN”: “not failed”.
The result for “MITVVIASRLREDRLDYLTAMHASLTRQSVPWEAVIALDGASPDRLPRQLAQDPRVDTLVLPRPVGAACARNLALTQVRTRYVNWADDDDEFTDDAMSVRLETLESTGVGWCAGWSEDQFRDGSTRLWRCPTPPGRHEAGDVWTFWKSPADTIPIGPTTILARTDLVRAAPMGGLVQGEDYCAALGVTALAPGILLPLPVYRYRKWGGQMTAQDGYDQLETAAREHAWAYGRSLRAVLRGGEDLVHVLEHHHHHH” reads “failed”; that for “MSDNKPFGGSFGSNGGQYATTVQYGGTAAAPAKVSLGDTPAAAPAGDVIKDTTTAAFAADVIQESRRQPVLVDFWAPWCGPCKQLTPQLEKAVRAAGGKVKLVKMNIDDHPSIAGQLGIQSIPAVIAFKDGQPVDGFMGAIPESQIAEFITKVGGKGNGAPAVAEALAAATEAREAGDMQTAADIFDAILAQAPETIEAIAGLGELLFEAGDTEGAEALLATAPEAKKDAPVLAALRAKMALAAQAAELGNPAEFERRLAENPKDHQARFDLAMIQNARGERTAAADNLLAIIKADRGWNEDGARTQLLQFFEAWGMTDEATLAARRKLSALLFS”, “failed”; that for “MELSFRIWLGGLGMLISLLILYFKAVPELEEFHKNCTLKQNWEQPFKKVKNLTLILSISLLSIIGFFLMFINLVNINPI”, “failed”.
For “MTTIRVENLSKIFKKGKTEVKAVDNVSITIDSGMAFGVLGPSGHGKTTFLRLIAGLEEPTSGYIYFDNEAVSSPRRVMMSPEKRGIAMVFQNWALYPNMTVFDNIAFPLKLAKVPKDKIENKVKEVSEELGLSGVLNRYPKELSGGQMQRTAIARALVKDPKVLLLDEPFSNLDAQIRESARALVRKIQRERKLTTLIVSHDPADIFAIANKAGVIVNGKFAQIGTPTEIYEYPATDLIARLTGEINLIQAKIIENNAIIANLKVPLNNMELKGQSNIVIGLRPDDLTLSDTLLDKYIDMGIVKVKLVSYGAGIFKIVVSPITDENIDIIVDAEEPLETGIETHLLAKPNKVKIFDLNGSNLITSKTQIIK”, the protein production result is recorded as “failed”.
Turning to “MAGDVEGFCSSIHDTSVSAGFRALYEEGLLLDVTLVIEDHQFQAHKALLATQSDYFRIMFTADMRERDQDKIHLKGLTATGFSHVLQFMYYGTIELSMNTVHEILQAAMYVQLIEVVKFCCSFLLAKICLENCAEIMRLLDDFGVNIEGVREKLDAFLLDNFVPLMSRPDFLSYLSFEKLMSYLDNDHLSRFPEIELYEAVQSWLRHDRRRWRHTDTIIQNIRFCLMTPSSVFEKVGTFESDRQDSSI”, the protein production result is listed as “failed”.
In the case of “MNVSKILVSPTVTTNVLRIFAPRLPQIGASLLVQKKWALRSKKFYRFYSEKNSGEMPPKKEADSSGKASNKSTISSIDNSQPPPPSNTNDKTKQANVAVSHAMLATREQEANKDLTSPDAQAAFYKLLLQSNYPQYVVSRFETPGIASSPECMELYMEALQRIGRHSEADAVRQNLLTASSAGAVNPSLASSSSNQSGYHGNFPSMYSPLYGSRKEPLHVVVSESTFTVVSRWVKWLLVFGILTYSFSEGFKYITENTTLLKSSEVADKSVDVAKTNVKFDDVCGCDEARAELEEIVDFLKDPTKYESLGGKLPKGVLLTGPPGTGKTLLARATAGEAGVDFFFMSGSEFDEVYVGVGAKRIRDLFAQARSRAPAIIFIDELDAIGGKRNPKDQAYAKQTLNQLLVELDGFSQTSGIIIIGATNFPEALDKALTRPGRFDKVVNVDLPDVRGRADILKHHMKKITLADNVDPTIIARGTPGLSGAELANLVNQAAVYACQKNAVSVDMSHFEWAKDKILMGAERKTMVLTDAARKATAFHEAGHAIMAKYTNGATPLYKATILPRGRALGITFQLPEMDKVDITKRECQARLDVCMGGKIAEELIYGKDNTTSGCGSDLQSATGTARAMVTQYGMSDDVGPVNLSENWESWSNKIRDIADNEVIELLKDSEERARRLLTKKNVELHRLAQGLIEYETLDAHEIEQVCKGEKLDKLKTSTNTVVEGPDSDERKDIGDDKPKIPTMLNA”, the protein production result is “failed”.
The result for “MVQELLKQLQNGEAKFADVLAYIESRFEHQPTAFKNGQQQNAATENQGSAKVFSLAQIEGLNQTETLSLFAEHYAAVLNTPEGTDHQNIRQFMQHGWDGVTFEGEALQAK” reads “failed”; that for “MNELILLRQLAENQQYPSLLELAQSLWYDSGNPAVLPLLATANAHMGLKENTQALYQQSLKHFDVLDVDARCDLAVVLIVMQRIDDAIKMLSDILMEQGNHALALARLAYCYLASGRLAEAQHFFEKSLIITPERFIVHRNLVAVYIAQNELNQAQKQLDSATEVLVNYHKVGDPLYQQYWFQLNTTQLQLWVVQGLFCPAEEWLTQLSVRQQAGDYDEAVLVQYVKSYSQVLAEKNFHQQATNILREYLKQYNNNVELCMALAELAQVQGHFMQAISLLQKALKKDEGNSDLWVQLSTACLHRFDKKARKAAVRAVSLAEALEITDEQSLVLIKMKQAQANNALAEVECQEQNFEVSEKLYRDILAEHSHFLPALQGLGQQQMQQGNIDEAVALFERIKDIDLLKGCSALINVRRFPDDVEALDKMAIAANKPSMEGSLRAGILFQLAAAWEKKKDYNKAFRFAEQANNASKKFLSYNAQKHREDCARLRACFNKTLYQHRPNYGIESTIPVYVLGMPRSGTTLVEQILSGHSDIFGAGELGVIPQVIQGINRWERHTGSGRQYPDCIDDFNADTIAGIANNMLKELQELAAETKPESKYVVDKMPHNFENIGLIKFLFPNAKIISVRRDPRDIAMSNYFTDYQAKHGGMGFAYDLEHIGEQLADHNLLMHHWQQTFPDEILEINYEDVVDDIEGCARKMLSYIGVNWQPKVLKFNELVRTVKTASVWQVRQPIYKTSKGKWLRYQTRLTPLIKGTNAKIVSHPITDLLTLPEPGFLTDGVALYKEGKLDDAEMCFKKMLHHNPGHAACHYMIGLVYLTKNHAQDGIRHFEKAVASCPWQKEWRQNLLKAYEQEGETNKIAAFKKGNQRTTANDANNAVTYDEHFTSDAFTTKTTVSQ”, “failed”.
“MSELSTEAPAQSAKPTIYFDGVSSRRRQVTLTLGDALEIVEEGATPVRWAYADIRRADSPAGILRLASTFAPPLARLEIRDTALAADVSVRCMRLDEHQTTRRGIAKIVGWSVAAAVSIVCVVLFGVPLAADRLAPLVPKPIERRIGDASEVQVKTIFGGRTCEDPAGKAAFTKLVNRLRDAAGLDDDSMTAGVLPTSVPNAFALPGGKVFLLQGLLDRAESPDELAGILAHELGHLKHHDNMRGLIYNGGTSFLIGLLFGDVTGSSAVIFASRSVVEASYSREAETGADTFAIDIMHALGRSPRPSAELMFRITGKEGGSGFTILSSHPLTEDRLARMTKEDRPVSGPPLLTDAEWRALKGICGSGKI”: the protein production entry is recorded as “failed”.
The result for “MSDPLTAQEQHKRRQAVRELMPRTPFIGGLGIVFERYEPDDVVIRLPFRTDLTNDGTYFHGGVIASVMDTAGAAAAWSNHDFDRGTRAATVAMSIQYTGAAKRCDLLCHARTARRRKELTFTEITATDPDGNIVAHAVQTYRIVLEHHHHHH” reads “failed”; that for “MSLNYKNYTVMLVDDEQPILNSLKRLIKRLGCNIITFTSPLDALEALKGTSVQLVISDMRMPEMGGEVFLEQVAKSYPDIERVVISGYADAQATIDAVNRGKISRFLLKPWEDEDVFKVVEKGLQLAFLREENLRLQEETEAKNKQEGHHHHHH”, “not failed”; that for “MTRNRRRIAFAAILAMATTAHAQQGQVLTTQDEIGGVYEGTFRGGLQHGTGTYRLPNGYEYSGEWVDGEIRGRGVARFPNGSVYEGSFAQGKPEGMGKITFSDGGTYEGEWSNGVINGQGVAVYANGVRYEGGFRDARHHGKGVMQSPGGYVYEGDWADGQKEGLGKITYPDGAVYEGGIVAGQRHGEGTLTLPDGLVYVGFWADGQINGKGTLTQANGDVYEGDLIAGRREGKGKVTYANGDVYQGDFTDDRREGQGIFTGTDGYSYAGSWVAGQIEGQGRVTYPDGSVYEGNFRADLADGQGKITYPDGSSYEGEWVAGVIEGTGTAIYANGIVYKGTFKNAKNHGQGVMTYADGYRYEGEWQDGVRHGQGKATYPDGSVYTGQYVNGQREGDGEIVMADGFRYKGQWQSGKISGIGVATYANGDIYEGHFRNGKRQGEGTMKYASGQEEKGNWDNGALTKGAAASDG”, “failed”.
The same measure for “MPARPAYSRLQIALHWLVAILIAAAWLTHEGMGRALETRIETGASGFEGNTPHVWLGIAVFVAVLIRIVVRRVQGAPGPLPGATPLMEKAATWGHRLLYLLMVLTPALGALAWNAHSEAVGELHETVGSALMLVALGHALVALWHQYVKKDGSLTRITRPQG”: “failed”.
